From publication PMC5173029

Biological target: Recombinant FIP-sch3 from Stachybotrys chartarum (Stachybotrys chartarum IBT 7711)
Assay: SEC; Superdex 75 (10/300 GL) gel filtration in PBS (10 mM, pH 7.2) after the GST tag was removed; markers 66, 43, 29 and 17 kDa; calculated mass about 28.3 kDa against 14.1 kDa for the monomer

## Recombinant FIP-sch3 from Stachybotrys chartarum (natural protein)
  stoichiometry N: 2
